# Test results from US20180094075A1 (Pfizer, published 2018).
# Assays:
# [1] = molecular target: human PTK7 expressed on cells (cancer cell lines with endogenous PTK7; HEK293T-PTK7 over-expressing cells) (human) (UniProt Q13308); test: flow cytometry, RL cells, 10 µg/ml Ab
# [2] = molecular target: human PTK7 expressed on cells (cancer cell lines with endogenous PTK7; HEK293T-PTK7 over-expressing cells) (human) (UniProt Q13308); test: flow cytometry, H69 cells, 10 µg/ml Ab
# [3] = molecular target: human PTK7 expressed on cells (cancer cell lines with endogenous PTK7; HEK293T-PTK7 over-expressing cells) (human) (UniProt Q13308); test: flow cytometry, HEL cells, 10 µg/ml Ab
# [4] = molecular target: human PTK7 expressed on cells (cancer cell lines with endogenous PTK7; HEK293T-PTK7 over-expressing cells) (human) (UniProt Q13308); test: flow cytometry, NB4 cells, 10 µg/ml Ab
# [5] = molecular target: human PTK7 expressed on cells (cancer cell lines with endogenous PTK7; HEK293T-PTK7 over-expressing cells) (human) (UniProt Q13308); test: flow cytometry, EKVX cells, 10 µg/ml Ab
# [6] = molecular target: human PTK7 expressed on cells (cancer cell lines with endogenous PTK7; HEK293T-PTK7 over-expressing cells) (human) (UniProt Q13308); test: flow cytometry, H358 cells, 10 µg/ml Ab
# [7] = molecular target: human PTK7 expressed on cells (cancer cell lines with endogenous PTK7; HEK293T-PTK7 over-expressing cells) (human) (UniProt Q13308); test: flow cytometry, H520 cells, 10 µg/ml Ab
# [8] = molecular target: human PTK7 expressed on cells (cancer cell lines with endogenous PTK7; HEK293T-PTK7 over-expressing cells) (human) (UniProt Q13308); test: flow cytometry, Raji cells, 10 µg/ml Ab
# [9] = molecular target: human PTK7 expressed on cells (cancer cell lines with endogenous PTK7; HEK293T-PTK7 over-expressing cells) (human) (UniProt Q13308); test: flow cytometry, TF1a cells, 10 µg/ml Ab
# [10] = molecular target: human PTK7 expressed on cells (cancer cell lines with endogenous PTK7; HEK293T-PTK7 over-expressing cells) (human) (UniProt Q13308); test: flow cytometry, U937 cells, 10 µg/ml Ab
# [11] = molecular target: human PTK7 expressed on cells (cancer cell lines with endogenous PTK7; HEK293T-PTK7 over-expressing cells) (human) (UniProt Q13308); test: flow cytometry, BxPC3 cells, 10 µg/ml Ab
# [12] = molecular target: human PTK7 expressed on cells (cancer cell lines with endogenous PTK7; HEK293T-PTK7 over-expressing cells) (human) (UniProt Q13308); test: flow cytometry, DMS79 cells, 10 µg/ml Ab
# [13] = molecular target: human PTK7 expressed on cells (cancer cell lines with endogenous PTK7; HEK293T-PTK7 over-expressing cells) (human) (UniProt Q13308); test: flow cytometry, H1048 cells, 10 µg/ml Ab
# [14] = molecular target: human PTK7 expressed on cells (cancer cell lines with endogenous PTK7; HEK293T-PTK7 over-expressing cells) (human) (UniProt Q13308); test: flow cytometry, H1299 cells, 10 µg/ml Ab
# [15] = molecular target: human PTK7 expressed on cells (cancer cell lines with endogenous PTK7; HEK293T-PTK7 over-expressing cells) (human) (UniProt Q13308); test: flow cytometry, H2110 cells, 10 µg/ml Ab
# [16] = molecular target: human PTK7 expressed on cells (cancer cell lines with endogenous PTK7; HEK293T-PTK7 over-expressing cells) (human) (UniProt Q13308); test: flow cytometry, HCC38 cells, 10 µg/ml Ab
# [17] = molecular target: human PTK7 expressed on cells (cancer cell lines with endogenous PTK7; HEK293T-PTK7 over-expressing cells) (human) (UniProt Q13308); test: flow cytometry, HCC70 cells, 10 µg/ml Ab
# [18] = molecular target: human PTK7 expressed on cells (cancer cell lines with endogenous PTK7; HEK293T-PTK7 over-expressing cells) (human) (UniProt Q13308); test: flow cytometry, MV411 cells, 10 µg/ml Ab
# [19] = molecular target: human PTK7 expressed on cells (cancer cell lines with endogenous PTK7; HEK293T-PTK7 over-expressing cells) (human) (UniProt Q13308); test: flow cytometry, SKBR3 cells, 10 µg/ml Ab
# [20] = molecular target: human PTK7 expressed on cells (cancer cell lines with endogenous PTK7; HEK293T-PTK7 over-expressing cells) (human) (UniProt Q13308); test: flow cytometry, DMS114 cells, 10 µg/ml Ab
# [21] = molecular target: human PTK7 expressed on cells (cancer cell lines with endogenous PTK7; HEK293T-PTK7 over-expressing cells) (human) (UniProt Q13308); test: flow cytometry, Hs578T cells, 10 µg/ml Ab
# [22] = molecular target: human PTK7 expressed on cells (cancer cell lines with endogenous PTK7; HEK293T-PTK7 over-expressing cells) (human) (UniProt Q13308); test: flow cytometry, Hs700T cells, 10 µg/ml Ab
# [23] = molecular target: human PTK7 expressed on cells (cancer cell lines with endogenous PTK7; HEK293T-PTK7 over-expressing cells) (human) (UniProt Q13308); test: flow cytometry, HCC1806 cells, 10 µg/ml Ab
# [24] = molecular target: human PTK7 expressed on cells (cancer cell lines with endogenous PTK7; HEK293T-PTK7 over-expressing cells) (human) (UniProt Q13308); test: flow cytometry, MiaPaca cells, 10 µg/ml Ab
# [25] = molecular target: human PTK7 expressed on cells (cancer cell lines with endogenous PTK7; HEK293T-PTK7 over-expressing cells) (human) (UniProt Q13308); test: flow cytometry, Kasumi-1 cells, 10 µg/ml Ab
# [26] = molecular target: human PTK7 expressed on cells (cancer cell lines with endogenous PTK7; HEK293T-PTK7 over-expressing cells) (human) (UniProt Q13308); test: flow cytometry, MDAMB436 cells, 10 µg/ml Ab
# [27] = molecular target: human PTK7 expressed on cells (cancer cell lines with endogenous PTK7; HEK293T-PTK7 over-expressing cells) (human) (UniProt Q13308); test: flow cytometry, MDAMB468 cells, 10 µg/ml Ab
# [28] = molecular target: human PTK7 expressed on cells (cancer cell lines with endogenous PTK7; HEK293T-PTK7 over-expressing cells) (human) (UniProt Q13308); test: flow cytometry, RPMI8226 cells, 10 µg/ml Ab
# Chain of human PTK7 expressed on cells (cancer cell lines with endogenous PTK7; HEK293T-PTK7 over-expressing cells) (human) (Q13308 31-1070 L93P limits assumed): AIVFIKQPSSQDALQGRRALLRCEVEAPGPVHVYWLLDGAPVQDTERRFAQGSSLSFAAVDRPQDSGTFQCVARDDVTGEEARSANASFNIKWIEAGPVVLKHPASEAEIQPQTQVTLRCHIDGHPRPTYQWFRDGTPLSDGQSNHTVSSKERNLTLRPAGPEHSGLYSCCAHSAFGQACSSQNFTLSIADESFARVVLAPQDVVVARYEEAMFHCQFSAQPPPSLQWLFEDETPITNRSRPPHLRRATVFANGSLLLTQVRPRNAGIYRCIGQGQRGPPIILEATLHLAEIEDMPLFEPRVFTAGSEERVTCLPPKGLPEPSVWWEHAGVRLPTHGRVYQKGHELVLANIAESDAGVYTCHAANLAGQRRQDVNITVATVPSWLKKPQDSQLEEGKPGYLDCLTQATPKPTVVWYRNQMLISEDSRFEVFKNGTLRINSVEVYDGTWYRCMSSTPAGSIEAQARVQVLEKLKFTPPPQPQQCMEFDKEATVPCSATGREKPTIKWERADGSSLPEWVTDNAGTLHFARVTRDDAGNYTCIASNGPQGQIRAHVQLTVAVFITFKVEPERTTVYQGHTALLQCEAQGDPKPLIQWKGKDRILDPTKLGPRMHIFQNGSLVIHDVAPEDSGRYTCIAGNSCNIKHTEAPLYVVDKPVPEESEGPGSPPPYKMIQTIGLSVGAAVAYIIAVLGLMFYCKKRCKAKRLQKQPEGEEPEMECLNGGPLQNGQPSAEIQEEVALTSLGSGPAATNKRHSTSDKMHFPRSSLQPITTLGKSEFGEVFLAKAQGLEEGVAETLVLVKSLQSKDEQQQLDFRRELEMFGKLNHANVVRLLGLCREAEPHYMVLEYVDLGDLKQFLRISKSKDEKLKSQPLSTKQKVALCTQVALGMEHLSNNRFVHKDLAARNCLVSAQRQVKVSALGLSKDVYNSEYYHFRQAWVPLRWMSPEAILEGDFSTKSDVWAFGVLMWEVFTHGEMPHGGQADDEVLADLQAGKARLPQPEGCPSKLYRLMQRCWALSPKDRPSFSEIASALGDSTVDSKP
substance,measurement,setting,value
Negative Control Ab (Table 8) (antibody),Mean Fluorescent Intensity,[1],29.8
same,Mean Fluorescent Intensity,[2],11.2
same,Mean Fluorescent Intensity,[3],15.7
same,Mean Fluorescent Intensity,[4],6.8
same,Mean Fluorescent Intensity,[5],3.1
same,Mean Fluorescent Intensity,[6],4.5
same,Mean Fluorescent Intensity,[7],4.8
same,Mean Fluorescent Intensity,[8],20.3
same,Mean Fluorescent Intensity,[9],6.2
same,Mean Fluorescent Intensity,[10],5
same,Mean Fluorescent Intensity,[11],4.6
same,Mean Fluorescent Intensity,[12],8.5
same,Mean Fluorescent Intensity,[13],4.4
same,Mean Fluorescent Intensity,[14],3
same,Mean Fluorescent Intensity,[15],4.9
same,Mean Fluorescent Intensity,[16],7.2
same,Mean Fluorescent Intensity,[17],9.4
same,Mean Fluorescent Intensity,[18],7.7
same,Mean Fluorescent Intensity,[19],14.9
same,Mean Fluorescent Intensity,[20],9.9
same,Mean Fluorescent Intensity,[21],2.7
same,Mean Fluorescent Intensity,[22],4.9
same,Mean Fluorescent Intensity,[23],4.6
same,Mean Fluorescent Intensity,[24],3.5
same,Mean Fluorescent Intensity,[25],5.3
same,Mean Fluorescent Intensity,[26],3.5
same,Mean Fluorescent Intensity,[27],12
same,Mean Fluorescent Intensity,[28],8.3
